# Experimental data published in patent publication US20140179593A1 (published 2014).
# Positions of bridges follow the written chain, without caps; N, C: chain ends. Non-standard residues stand in square brackets, D forms with d. *: point of attachment. S5 = C=CCCC[C@](C)(N)C(=O)O; Nle = CCCC[C@H](N)C(=O)O; For = O=C*
# T1: yDcn1^P (potentiating neddylation (PONY) domain of S. cerevisiae Dcn1) (Saccharomyces cerevisiae, UniProt Q12395 70-269)
# T1 construct: NEDD8 co-E3; Expressed in E. coli
# T1 sequence: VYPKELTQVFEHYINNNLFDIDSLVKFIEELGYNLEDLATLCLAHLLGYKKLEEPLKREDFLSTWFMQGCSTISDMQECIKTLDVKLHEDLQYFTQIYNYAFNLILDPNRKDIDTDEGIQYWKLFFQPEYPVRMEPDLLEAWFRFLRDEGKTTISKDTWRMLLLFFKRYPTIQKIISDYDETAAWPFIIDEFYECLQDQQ
# T2: hDcn3^P (PONY domain of human DCUN1D3) (Homo sapiens, UniProt Q8IWE4 86-304)
# T2 sequence: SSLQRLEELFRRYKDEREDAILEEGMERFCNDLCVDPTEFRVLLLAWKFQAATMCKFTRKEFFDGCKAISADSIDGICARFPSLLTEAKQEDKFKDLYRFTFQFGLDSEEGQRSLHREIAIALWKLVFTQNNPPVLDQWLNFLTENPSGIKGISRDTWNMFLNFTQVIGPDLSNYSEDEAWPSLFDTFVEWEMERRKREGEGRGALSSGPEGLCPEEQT
# T3: hDcn5^P (PONY domain of human DCUN1D5) (Homo sapiens, UniProt Q9BTE7 47-237)
# T3 sequence: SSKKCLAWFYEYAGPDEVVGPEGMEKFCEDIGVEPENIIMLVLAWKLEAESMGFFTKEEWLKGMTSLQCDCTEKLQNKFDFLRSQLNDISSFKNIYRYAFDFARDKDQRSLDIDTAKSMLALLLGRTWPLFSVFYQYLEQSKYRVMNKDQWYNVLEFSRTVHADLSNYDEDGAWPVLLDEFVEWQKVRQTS
# T4: hDcn4^P (PONY domain of human DCUN1D4) (Homo sapiens, UniProt Q92564 102-292)
# T4 sequence: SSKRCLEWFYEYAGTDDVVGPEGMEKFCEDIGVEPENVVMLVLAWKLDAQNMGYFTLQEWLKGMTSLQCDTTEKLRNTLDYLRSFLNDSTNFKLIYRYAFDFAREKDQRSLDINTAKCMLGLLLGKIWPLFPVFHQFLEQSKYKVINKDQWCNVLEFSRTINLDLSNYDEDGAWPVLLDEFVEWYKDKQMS
# T5: yDcn1^P (potentiating neddylation / PONY domain of Saccharomyces cerevisiae Dcn1) (Saccharomyces cerevisiae, UniProt Q12395 70-269)
# T5 construct: NEDD8 co-E3; Expressed in E. coli
# T5 sequence: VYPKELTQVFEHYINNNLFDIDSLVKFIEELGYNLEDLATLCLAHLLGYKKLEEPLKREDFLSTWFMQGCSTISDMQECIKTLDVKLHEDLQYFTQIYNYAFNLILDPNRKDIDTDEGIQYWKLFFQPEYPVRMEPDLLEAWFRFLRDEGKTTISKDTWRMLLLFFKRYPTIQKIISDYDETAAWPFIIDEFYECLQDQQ
# B1: Formyl-yUbc12^1-24 (peptide)
# peptide: For-MLKLRQLQKKKQKENENSSSIQPN-NH2
# SMILES: CC[C@H](C)[C@H](NC(=O)[C@H](CO)NC(=O)[C@H](CO)NC(=O)[C@H](CO)NC(=O)[C@H](CC(N)=O)NC(=O)[C@H](CCC(=O)O)NC(=O)[C@H](CC(N)=O)NC(=O)[C@H](CCC(=O)O)NC(=O)[C@H](CCCCN)NC(=O)[C@H](CCC(N)=O)NC(=O)[C@H](CCCCN)NC(=O)[C@H](CCCCN)NC(=O)[C@H](CCCCN)NC(=O)[C@H](CCC(N)=O)NC(=O)[C@H](CC(C)C)NC(=O)[C@H](CCC(N)=O)NC(=O)[C@H](CCCNC(=N)N)NC(=O)[C@H](CC(C)C)NC(=O)[C@H](CCCCN)NC(=O)[C@H](CC(C)C)NC(=O)[C@H](CCSC)NC=O)C(=O)N[C@@H](CCC(N)=O)C(=O)N1CCC[C@H]1C(=O)N[C@@H](CC(N)=O)C(N)=O
# notes: Synthetic peptide; also called N-terminally formylated yeast Ubc12 peptide
# B2: yUbc12^Ac1-12 (NorLeu) 6, 10 (peptide)
# peptide: Ac-[Nle]LKLR[S5]LQK[S5]KQ-NH2
# modifications: staple 6-10
# SMILES: CCCC[C@H](NC(C)=O)C(=O)N[C@@H](CC(C)C)C(=O)N[C@@H](CCCCN)C(=O)N[C@@H](CC(C)C)C(=O)N[C@@H](CCCNC(=N)N)C(=O)N[C@@]1(C)CCCC=CCCC[C@@](C)(C(=O)N[C@@H](CCCCN)C(=O)N[C@@H](CCC(N)=O)C(N)=O)NC(=O)[C@H](CCCCN)NC(=O)[C@H](CCC(N)=O)NC(=O)[C@H](CC(C)C)NC1=O
# B3: Formyl-hUbc12^1-26 (peptide)
# peptide: For-MIKLFSLKQQKKEEESAGGTKGSSKK-NH2
# SMILES: CC[C@H](C)[C@H](NC(=O)[C@H](CCSC)NC=O)C(=O)N[C@@H](CCCCN)C(=O)N[C@@H](CC(C)C)C(=O)N[C@@H](Cc1ccccc1)C(=O)N[C@@H](CO)C(=O)N[C@@H](CC(C)C)C(=O)N[C@@H](CCCCN)C(=O)N[C@@H](CCC(N)=O)C(=O)N[C@@H](CCC(N)=O)C(=O)N[C@@H](CCCCN)C(=O)N[C@@H](CCCCN)C(=O)N[C@@H](CCC(=O)O)C(=O)N[C@@H](CCC(=O)O)C(=O)N[C@@H](CCC(=O)O)C(=O)N[C@@H](CO)C(=O)N[C@@H](C)C(=O)NCC(=O)NCC(=O)N[C@H](C(=O)N[C@@H](CCCCN)C(=O)NCC(=O)N[C@@H](CO)C(=O)N[C@@H](CO)C(=O)N[C@@H](CCCCN)C(=O)N[C@@H](CCCCN)C(N)=O)[C@@H](C)O
# notes: Synthetic peptide; also called N-terminally formylated human Ubc12 peptide; hUbc12^Formyl-1-26
# B4: Formyl-hUbc12^1-26 peptide (peptide)
# peptide: For-MIKLFSLKQQKKEEESAGGTKGSSKK-NH2
# SMILES: CC[C@H](C)[C@H](NC(=O)[C@H](CCSC)NC=O)C(=O)N[C@@H](CCCCN)C(=O)N[C@@H](CC(C)C)C(=O)N[C@@H](Cc1ccccc1)C(=O)N[C@@H](CO)C(=O)N[C@@H](CC(C)C)C(=O)N[C@@H](CCCCN)C(=O)N[C@@H](CCC(N)=O)C(=O)N[C@@H](CCC(N)=O)C(=O)N[C@@H](CCCCN)C(=O)N[C@@H](CCCCN)C(=O)N[C@@H](CCC(=O)O)C(=O)N[C@@H](CCC(=O)O)C(=O)N[C@@H](CCC(=O)O)C(=O)N[C@@H](CO)C(=O)N[C@@H](C)C(=O)NCC(=O)NCC(=O)N[C@H](C(=O)N[C@@H](CCCCN)C(=O)NCC(=O)N[C@@H](CO)C(=O)N[C@@H](CO)C(=O)N[C@@H](CCCCN)C(=O)N[C@@H](CCCCN)C(N)=O)[C@@H](C)O
# notes: Synthetic peptide; also called hUbc12^Formyl-1-26
# B5: Formyl-yUbc12^1-24 peptide (peptide)
# peptide: For-MLKLRQLQKKKQKENENSSSIQPN-NH2
# SMILES: CC[C@H](C)[C@H](NC(=O)[C@H](CO)NC(=O)[C@H](CO)NC(=O)[C@H](CO)NC(=O)[C@H](CC(N)=O)NC(=O)[C@H](CCC(=O)O)NC(=O)[C@H](CC(N)=O)NC(=O)[C@H](CCC(=O)O)NC(=O)[C@H](CCCCN)NC(=O)[C@H](CCC(N)=O)NC(=O)[C@H](CCCCN)NC(=O)[C@H](CCCCN)NC(=O)[C@H](CCCCN)NC(=O)[C@H](CCC(N)=O)NC(=O)[C@H](CC(C)C)NC(=O)[C@H](CCC(N)=O)NC(=O)[C@H](CCCNC(=N)N)NC(=O)[C@H](CC(C)C)NC(=O)[C@H](CCCCN)NC(=O)[C@H](CC(C)C)NC(=O)[C@H](CCSC)NC=O)C(=O)N[C@@H](CCC(N)=O)C(=O)N1CCC[C@H]1C(=O)N[C@@H](CC(N)=O)C(N)=O
# notes: Synthetic peptide
# B6: yUbc12^Ac1-24 (peptide)
# peptide: Ac-MLKLRQLQKKKQKENENSSSIQPN-NH2
# notes: Synthetic peptide of the N-terminus of yeast Ubc12; also called Acetyl-yUbc12^1-24
# B7: Acetyl-hUbc12^1-26 (peptide)
# peptide: Ac-MIKLFSLKQQKKEEESAGGTKGSSKK-NH2
# notes: Synthetic peptide; also called hUbc12Ac1-26
# B8: hUbc12^Ac1-26 (peptide)
# peptide: Ac-MIKLFSLKQQKKEEESAGGTKGSSKK-NH2
# notes: Synthetic peptide of the N-terminus of human Ubc12; also called Acetyl-hUbc12^1-26
# B9: Acetyl-yUbc12^1-24 (peptide)
# peptide: Ac-MLKLRQLQKKKQKENENSSSIQPN-NH2
# notes: Synthetic peptide; also called yUbc12Ac1-24; N-terminally acetylated S. cerevisiae Ubc12^1-24
# B10: Acetyl-hUbc12^1-15 (peptide)
# peptide: Ac-MIKLFSLKQQKKEEE-NH2
# notes: Peptide of the hCul1^WHB-hDcn1^P-Acetyl-hUbc12^1-15 crystal structure; also called N-terminally acetylated human Ubc12^1-15
# Tests used:
# [1] = target: T1, yDcn1^P (potentiating neddylation …); test: ITC; against Acetyl-yUbc12^1-24
# Protocol: (§1) Protein samples were buffer matched by desalting over a NAP-5 column (GE Healthcare) into 50 mM Hepes, 125 mM NaCl, 1 mM BME, pH 7.0 (ITC buffer). Peptides were dissolved by weight to a final concentration of 10 mM in ITC buffer and diluted further in ITC buffer as required for the experiments. […] The peptide ligands (4 mM) were constantly injected (1.5 μl). The interval time between each injection was 3 minutes and the duration of each injection was 3 seconds. […] Peptide ligands (250 μM) were constantly injected (2.5 μl). The interval time between each injection was three minutes and the duration of each injection was 5 seconds. […] The interval time between each injection was 3 minutes and the duration of each injection was 5 seconds. Obtained spectra were evaluated using Origin (V 7.0) to determine heats of binding and Kd values.
# [2] = target: hDcn2^P (PONY domain of human DCUN1D2) (Homo sapiens, UniProt Q6PH85 62-259); test: ITC, peptide titrated into Dcn PONY domain
# Protocol: as §1
# [3] = target: T6, hDcn1^P (potentiating neddylation / PONY domain of human Dcn1, DCUN1D1) (Homo sapiens, UniProt Q96GG9 62-259); test: ITC, peptide titrated into Dcn PONY domain
# T6 construct: also called DCUN1D1^P; SCCRO PONY domain
# Protocol: as §1
# [4] = target: T2, hDcn3^P (PONY domain of human DCUN1D3); test: ITC, peptide titrated into Dcn PONY domain
# Protocol: as §1
# [5] = target: T3, hDcn5^P (PONY domain of human DCUN1D5); test: ITC, peptide titrated into Dcn PONY domain
# Protocol: as §1
# [6] = target: T4, hDcn4^P (PONY domain of human DCUN1D4); test: ITC, peptide titrated into Dcn PONY domain
# Protocol: as §1
# [7] = target: T7, hDcn1^P (residues 62 to the C-terminal residue 259 of hDcn1, aka SCCRO or DCUN1D1) (Homo sapiens, UniProt Q96GG9 62-259); test: ITC; against Acetyl-hUbc12^1-26
# T7 construct: Expressed as a GST fusion in E. coli; GST released by TEV protease; also called DCUN1D1^P; PONY domain of hDcn1
# Protocol: (§2) The formylated peptides lack the methyl portion of an acetyl, but retain the amide and are uncharged.
# as §1
# [8] = target: T8, hDcn1^P (PONY domain of human Dcn1 / DCUN1D1 / SCCRO, residues 62 to 259) (Homo sapiens, UniProt Q96GG9 62-259); test: ITC, peptide titrated into hDcn1^P
# T8 construct: NEDD8 co-E3; Expressed as a GST fusion in E. coli; GST was removed with TEV protease; also called DCUN1D1^P
# Protocol: as §2, §1
# [9] = target: T5, yDcn1^P (potentiating neddylation / …); test: ITC, peptide titrated into yDcn1^P
# Protocol: as §2, §1
# [10] = target: T4, hDcn4^P (PONY domain of human DCUN1D4); test: ITC, two values in the cell, first value
# Protocol: as §1
# [11] = target: T4, hDcn4^P (PONY domain of human DCUN1D4); test: ITC, two values in the cell, second value
# Protocol: as §1
# [12] = target: T7, hDcn1^P (residues 62 to the C-terminal …); test: ITC, peptide titrated into Dcn1^P; against the unacetylated peptide
# Protocol: (§3) To gain insights into mechanistic roles of Ubc12 N-terminal acetylation, isothermal titration calorimetry (ITC) was used to quantify interactions with peptides corresponding to the N-termini of yeast or human Ubc12.
# as §1
# [13] = target: T1, yDcn1^P (potentiating neddylation …); test: as above
# Protocol: as §3, §1
# [14] = target: T7, hDcn1^P (residues 62 to the C-terminal …); test: crystal structure
# Protocol: The crystals grew as multiple clusters. Single crystals of the complex were obtained by streak-seeding into 17% PEG1500, 0.1 M MIB pH 4.0. The crystals were soaked in step gradients for 1-5 minutes, with sequential soaks containing well solution supplemented with 10%, 20%, and 30% ethylene glycol prior to flash-freezing in liquid nitrogen. Reflection data were collected at beamline 8.2.2 at the Advanced Light Source.
# hDcn2^P (PONY domain of human DCUN1D2), sequence (Q6PH85 62-259 limits assumed): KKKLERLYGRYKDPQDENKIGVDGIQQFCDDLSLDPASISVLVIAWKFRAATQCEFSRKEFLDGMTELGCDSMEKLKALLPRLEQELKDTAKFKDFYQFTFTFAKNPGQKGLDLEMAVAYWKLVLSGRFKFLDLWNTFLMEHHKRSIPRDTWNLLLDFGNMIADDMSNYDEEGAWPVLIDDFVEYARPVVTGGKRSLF
# T6 sequence (Q96GG9 62-259): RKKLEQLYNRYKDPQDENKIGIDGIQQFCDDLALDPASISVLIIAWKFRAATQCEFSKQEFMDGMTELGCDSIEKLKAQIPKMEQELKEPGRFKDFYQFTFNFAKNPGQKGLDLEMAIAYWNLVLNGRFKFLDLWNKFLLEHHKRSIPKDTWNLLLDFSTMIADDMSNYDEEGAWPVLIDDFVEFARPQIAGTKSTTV
# T7 sequence (Q96GG9 62-259): as above
# T8 sequence (Q96GG9 62-259): as above
binder,measurement,setting,value
B1,fold change of Kd against the acetylated peptide,[1],~17 fold
B2,Kd,[2],0.075 µM
same,Kd,[3],0.068 µM
same,Kd,[4],1.76 µM
same,Kd,[5],4.78 µM
same,Kd,[6],4.3 µM
B3,fold change of Kd against the acetylated peptide,[7],~9 fold
B4,Kd,[8],9.71 µM
same,ΔH,[8],-20.5 kJ/mol
same,ΔS,[8],5.79 cal/mol/deg
B5,Kd,[9],7.46 µM
same,ΔH,[9],11.8 kJ/mol
same,ΔS,[9],33.4 cal/mol/deg
B6,Kd,[10],1.2 µM
same,Kd,[11],13 µM
same,Kd,[2],0.204 µM
same,Kd,[3],0.311 µM
same,Kd,[4],3.4 µM
same,Kd,[5],2.4 µM
B7,increase in affinity by N-terminal acetylation,[12],~100 fold
B8,Kd,[2],0.735 µM
same,Kd,[3],1.5 µM
same,Kd,[4],10.8 µM
same,Kd,[5],8.6 µM
same,Kd,[6],10 µM
B9,increase in affinity by N-terminal acetylation,[13],~100 fold
B10,binding result,[14],binds
